In patent publication CN114195896A (AQUILARIA SINENSIS QINGSU BIOTECHNOLOGY CO LTD, dated 2022):

B1: 16-B7重组抗体 (16-B7 recombinant antibody, VHH fused to hIgG1 Fc) (Fc fusion)
chain: QARFVESGGGLVQSGGSLVLSCTVSDVTLDDYVTAWFRQAPGKEREGVSCISKRNFTSYVDSVKGRFTTSRDITKNTVLLQMNALTPEDTGVYYCATPILPSLAFGEVCSLQTEFRSWGPGTRVTVSS
notes: also called 16-B7纯化重组抗体; 原始序列16-B7; not shown: human IgG1 Fc from the expression vector pcDNA3.1-hIgG1-Fc2
B2: 商业化BCMA抗原蛋白 (ACRO BIOSYSTEMS, 货号BCA-H522y-1mg) (receptor, UniProt Q02223 1-54, looked up)
chain: MLQMAGQCSQNEYFDSLLHACIPCQLRCSSNTPPLTCQRYCNASVTNSVKGTNA
notes: also called 目标抗原BCMA; 靶蛋白BCMA

What was measured:
[1] = target: BCMA expressed on recombinant cells (CHO-BCMA; Nalm6-BCMA-LUC) (UniProt Q02223); experiment: flow cytometry on CHO-BCMA cells, purified antibody at 10, 2, 0.4 and 0.08 μg/mL
[2] = target: B2; experiment: SPR, BCMA immobilised on the chip, recombinant antibody as the mobile phase
[3] = target: T1, 16-B7-HM4人源化重组抗体 (humanised 16-B7-HM4 recombinant antibody, VHH fused to hIgG1 Fc) (human, UniProt P01857-1 99-330 = IgG part, limits assumed); experiment: as above
T1 construct: domain: Fc; also called 人源化重组抗体16-B7-HM4
T1 sequence (P01857 other isoform, or with tags, fused parts or gaps limits assumed): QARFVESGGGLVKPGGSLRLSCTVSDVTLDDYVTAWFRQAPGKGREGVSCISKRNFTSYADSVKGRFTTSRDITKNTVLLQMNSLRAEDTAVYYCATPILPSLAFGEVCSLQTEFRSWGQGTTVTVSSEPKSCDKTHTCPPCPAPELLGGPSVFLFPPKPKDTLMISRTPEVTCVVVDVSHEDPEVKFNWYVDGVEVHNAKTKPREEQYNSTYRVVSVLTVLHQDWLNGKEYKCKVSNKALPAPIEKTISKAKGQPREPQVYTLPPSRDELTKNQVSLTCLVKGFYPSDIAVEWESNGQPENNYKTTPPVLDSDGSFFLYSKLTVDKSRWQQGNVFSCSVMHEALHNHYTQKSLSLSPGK

B1 was tested, and the antibody concentration at saturation [1] was 2 µg/mL and the Kd [2] was 3.73 nM.

B2 was tested, and the Kd [3] was 1.06 nM.
